Test results taken from paper PMC8674125, “Analysis of Il36a induction by C/EBPβ via a half-CRE•C/EBP element in murine macrophages in dependence of its CpG methylation level”.

Biological target: C/EBPβ bZIP domain (mouse, UniProt P28033 221-296)
Experiment: fluorescence polarization; FP: 5 nM DNA, 20 mM Tris-HCl pH 7.5, 150 mM NaCl, 5% glycerol, 0.5 mM TCEP, 0.1 mg/ml BSA, 30 min, temperature not stated; EMSA conditions as in earlier work, not given
Details: protein: recombinant; tags: N-terminal 6xHis (pET-45b); chain copies: 2; label: 5'-FAM on strand 1; blunt

C/EBPβ bZIP domain, sequence (P28033 221-296): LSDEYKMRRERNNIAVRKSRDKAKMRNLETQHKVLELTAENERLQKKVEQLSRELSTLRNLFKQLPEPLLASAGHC

Binder	Kd [nM]
FP_CREBmeth (methylated half-CRE•C/EBP Il36a) (dsDNA, 5-methyl-C (mC) at position 8 of strand 1 and position 7 of strand 2) DNA 1: CATCTTACGTCACCT DNA 2: AGGTGACGTAAGATG	100 ± 30
FP_CREB (unmethylated half-CRE•C/EBP Il36a) (dsDNA) DNA 1: CATCTTACGTCACCT DNA 2: AGGTGACGTAAGATG	80 ± 30
